# Measured values reported in the supplement of paper PMC9112550, “Optimization of the antimicrobial peptide Bac7 by deep mutational scanning” (BMC Biology, 2022).
# Tested on: Escherichia coli TOP10
# Experiment: shrunken log2 fold change of peptide-encoding DNA abundance (4.5 h post-induction vs induction); higher = less antimicrobial activity (less host growth inhibition)
# Conditions: time post-induction: 4.5 h; library: site-saturation at positions 5, 18, 19, 20
# 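Also: peptides expressed intracellularly from a pBAD plasmid library in pooled LB shake-flask culture, induced with 0.3% L-arabinose, DNA abundance read by NGS, three biological replicates, DESeq2 with apeglm shrinkage.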
row,Sequence,shrunken log2 fold change
1,RRIRYRPPRLPRPRPRPMQDPRP,-0.28
2,RRIRYRPPRLPRPRPRPQPYPRP,-0.649
3,RRIRCRPPRLPRPRPRPVRCPRP,-0.00859
4,RRIRERPPRLPRPRPRPARTPRP,0.0417
5,RRIRLRPPRLPRPRPRPALIPRP,-0.00882
6,RRIRERPPRLPRPRPRPSCHPRP,-0.934
7,RRIRHRPPRLPRPRPRPAPHPRP,0.223
8,RRIRQRPPRLPRPRPRPMCMPRP,0.0416
9,RRIRKRPPRLPRPRPRPVPAPRP,0.648
10,RRIRNRPPRLPRPRPRPWLMPRP,-0.13
11,RRIRNRPPRLPRPRPRPGRWPRP,0.762
12,RRIRVRPPRLPRPRPRPVTLPRP,-0.227
13,RRIRFRPPRLPRPRPRPCYSPRP,0.019
14,RRIRNRPPRLPRPRPRPDGRPRP,-0.109
15,RRIRMRPPRLPRPRPRPKCQPRP,1.33
16,RRIRHRPPRLPRPRPRPGRQPRP,-0.0906
17,RRIRRRPPRLPRPRPRPEGKPRP,0.0207
18,RRIRRRPPRLPRPRPRPQAEPRP,0.0907
19,RRIRLRPPRLPRPRPRPNVQPRP,-0.275
20,RRIRSRPPRLPRPRPRPWKQPRP,-0.00145
21,RRIRTRPPRLPRPRPRPLFDPRP,-0.451
22,RRIRIRPPRLPRPRPRPTGQPRP,0.0119
23,RRIRVRPPRLPRPRPRPCVLPRP,-0.44

row,Sequence,shrunken log2 fold change
1,RRIRERPPRLPRPRPRPCFAPRP,0.0529
2,RRIRVRPPRLPRPRPRPIIDPRP,0.0493
3,RRIRFRPPRLPRPRPRPELYPRP,0.0341
4,RRIRQRPPRLPRPRPRPAISPRP,-0.292
5,RRIRSRPPRLPRPRPRPATEPRP,0.121
6,RRIRTRPPRLPRPRPRPMGPPRP,-0.114
7,RRIRSRPPRLPRPRPRPALNPRP,0.161
8,RRIRCRPPRLPRPRPRPAAKPRP,0.164
9,RRIRGRPPRLPRPRPRPTFMPRP,0.327
10,RRIRMRPPRLPRPRPRPVDCPRP,0.029
11,RRIRIRPPRLPRPRPRPYWGPRP,-0.151
12,RRIRLRPPRLPRPRPRPQYGPRP,0.0165
13,RRIRRRPPRLPRPRPRPNMDPRP,-0.442
14,RRIRMRPPRLPRPRPRPKAHPRP,0.892
15,RRIRARPPRLPRPRPRPELCPRP,0.92
16,RRIRNRPPRLPRPRPRPTRVPRP,0.376
17,RRIRHRPPRLPRPRPRPEHHPRP,-0.0643
18,RRIRDRPPRLPRPRPRPQVKPRP,-0.0431
19,RRIRERPPRLPRPRPRPTRMPRP,0.084
20,RRIRARPPRLPRPRPRPELRPRP,1.14
21,RRIRMRPPRLPRPRPRPRHAPRP,0.698
22,RRIRRRPPRLPRPRPRPIETPRP,-0.00874
23,RRIRGRPPRLPRPRPRPRIWPRP,0.836

row,Sequence,shrunken log2 fold change
1,RRIRCRPPRLPRPRPRPMRRPRP,0.163
2,RRIRLRPPRLPRPRPRPIKIPRP,0.0507
3,RRIRRRPPRLPRPRPRPIEDPRP,-0.089
4,RRIRWRPPRLPRPRPRPVHYPRP,-0.0467
5,RRIRSRPPRLPRPRPRPLNRPRP,-0.246
6,RRIRRRPPRLPRPRPRPTIIPRP,-0.159
7,RRIRSRPPRLPRPRPRPKDAPRP,0.22
8,RRIRMRPPRLPRPRPRPYNAPRP,-0.439
9,RRIRSRPPRLPRPRPRPCKIPRP,-0.177
10,RRIRARPPRLPRPRPRPEIEPRP,0.719
11,RRIRDRPPRLPRPRPRPQMMPRP,-0.211
12,RRIRYRPPRLPRPRPRPTTGPRP,-0.549
13,RRIRRRPPRLPRPRPRPIKPPRP,0.0148
14,RRIRGRPPRLPRPRPRPDPQPRP,0.694
15,RRIRRRPPRLPRPRPRPKYRPRP,-0.000605
16,RRIRKRPPRLPRPRPRPCSTPRP,0.0274
17,RRIRFRPPRLPRPRPRPEDLPRP,0.143
18,RRIRTRPPRLPRPRPRPYHFPRP,-0.28
19,RRIRRRPPRLPRPRPRPCHCPRP,-0.0688
20,RRIRMRPPRLPRPRPRPDNHPRP,-0.21
21,RRIRRRPPRLPRPRPRPPQKPRP,1.31
22,RRIRKRPPRLPRPRPRPEECPRP,0.00489
23,RRIRWRPPRLPRPRPRPGLFPRP,2.38

row,Sequence,shrunken log2 fold change
1,RRIRWRPPRLPRPRPRPKTPPRP,0.894
2,RRIRDRPPRLPRPRPRPCDHPRP,-0.0216
3,RRIRRRPPRLPRPRPRPYVHPRP,-0.356
4,RRIRGRPPRLPRPRPRPRYWPRP,0.248
5,RRIRVRPPRLPRPRPRPKKMPRP,-0.0803
6,RRIRNRPPRLPRPRPRPMEYPRP,-0.0389
7,RRIRKRPPRLPRPRPRPDTDPRP,0.198
8,RRIRIRPPRLPRPRPRPKVMPRP,-0.206
9,RRIRNRPPRLPRPRPRPSLNPRP,-0.335
10,RRIRSRPPRLPRPRPRPWLIPRP,-0.0422
11,RRIRYRPPRLPRPRPRPSADPRP,-0.18
12,RRIRYRPPRLPRPRPRPAGGPRP,0.148
13,RRIRVRPPRLPRPRPRPIIKPRP,-0.351
14,RRIRIRPPRLPRPRPRPFGCPRP,-0.742
15,RRIRKRPPRLPRPRPRPQSFPRP,0.327
16,RRIRVRPPRLPRPRPRPDWSPRP,-0.316
17,RRIRVRPPRLPRPRPRPYKMPRP,-0.428
18,RRIRHRPPRLPRPRPRPPDNPRP,-0.0231
19,RRIRPRPPRLPRPRPRPAMKPRP,0.162
20,RRIRHRPPRLPRPRPRPKVPPRP,0.0497
21,RRIRWRPPRLPRPRPRPNQCPRP,-0.384
22,RRIRKRPPRLPRPRPRPFLSPRP,-0.0256
